Data as given in patent publication EP4722370A1.

What was measured:
[1] = target: his-tagged DLL3 antigen protein (UniProt Q9NYJ7); assay: flow cytometry; transduced T cells with 3 ug/ml his-tagged DLL3, AF647 secondary antibody
[2] = target: his-tagged DLL3 antigen protein (UniProt Q9NYJ7); assay: flow cytometry; transduced T cells, method of the earlier example (his-tagged DLL3 staining)

Sequence of UniProt Q9NYJ7 (Q9NYJ7 27-492 limits assumed): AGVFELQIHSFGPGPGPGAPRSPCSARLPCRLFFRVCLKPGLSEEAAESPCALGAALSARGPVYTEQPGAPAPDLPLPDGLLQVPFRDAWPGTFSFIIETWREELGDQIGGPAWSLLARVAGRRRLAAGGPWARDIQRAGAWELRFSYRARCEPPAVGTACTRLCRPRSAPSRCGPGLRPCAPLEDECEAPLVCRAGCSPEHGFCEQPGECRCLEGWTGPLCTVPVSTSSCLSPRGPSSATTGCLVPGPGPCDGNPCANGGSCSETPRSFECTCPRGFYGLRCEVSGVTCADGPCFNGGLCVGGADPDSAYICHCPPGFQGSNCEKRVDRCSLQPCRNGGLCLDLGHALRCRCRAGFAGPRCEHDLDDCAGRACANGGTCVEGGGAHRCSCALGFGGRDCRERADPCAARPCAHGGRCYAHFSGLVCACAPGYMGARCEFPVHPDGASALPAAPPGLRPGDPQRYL

B1: DLL3-CAR09 (protein)
chain: DIVMTQSPLSLPVTPGEPASISCRASQTISDYLHWYLQKPGQSPQLLIKYASQSISGVPDRFSGSGSGSDFTLKISRVEAEDVGVYYCQQGHSFPLTFGQGTKLEIKGGGGSGGGGSGGGGSEVQLVQSGAEVKKPGASVKVSCKASGYTFTSYWMHWVRQAPGQRLEWMGTIYPGNSDTRYNQKFKDRVTITADTSASTAYMELSSLRSEDTAVYYCTRSYDYGDLDYWGQGTTVTVSSAAAIEVMYPPPYLDNEKSNGTIIHVKGKHLCPSPLFPGPSKPFWVLVVVGGVLACYSLLVTVAFIIFWVRSKRSRLLHSDYMNMTPRRPGPTRKHYQPYAPPRDFAAYRSRVKFSRSADAPAYQQGQNQLYNELNLGRREEYDVLDKRRGRDPEMGGKPRRKNPQEGLYNELQKDKMAEAYSEIGMKGERRRGKGHDGLYQGLSTATKDTYDALHMQALPPR
[1]
  CAR expression level (% of T cells stained with his-tagged DLL3 antigen protein): 69%
[2]
  CAR expression level (% of T cells stained with his-tagged DLL3 antigen protein): 74%
